41 sequences from the nanobody polyreactivity screen of Harvey et al. (2022) can be followed below.

The nature of this series: yeast display, Sf9 membrane polyspecificity reagent, FACS + sequencing; frameworks hold sequencing errors. In short, it runs like this: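 Using colony PCR, genes from sorted yeast display clones were amplified, then sequenced on MiSeq at 2 × 250 and filtered by CDR length. The clones had been stained with 10% biotinylated, detergent-solubilized Sf9 membrane reagent for 1 hour at 4 °C and sorted by FACS into low and high (top ~1%) gates on anti-HA and streptavidin fluorescence. Polyreactivity labels come from the gate of origin.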
Take “QVKLVESGGGLVQAGGSLRISCAASVSIFPVYAMGWYRQAPGKERELVAAISSRGGRTYYADSVKGLFTISRDNAKNTVYLQMNSLKPEDNAVYYFATDYSTYYRLPSQYDYWGQGTQVTVSS”: the “polyreactivity (PSR sort gate)” value is “low polyreactivity”.
“QVKLVESGGGLVQAGGSLRLICAASGFTFRYYTMGWYRQAPGKARELVAAISRSSGSRTYYADSVKGRFTISRDNAKNTVYLQMNSLKPEDTAVYYCNADPAYQFDYWGQGTQVTVSS”: the “polyreactivity (PSR sort gate)” value is “high polyreactivity”.
To “QVKLVESGGGLVQAGGSLRLSCAASGIIFYDYAMGWYRQAPGKERELVAAISSGGDTYYADSVKGRFTISRDNAKNTVYLQMNSLKPEVTAVYYCAAYPPFIYSDPSIWYDYWGQGSQVTVSS” belongs “low polyreactivity”.
To “QVKLVESGGGLVQAGGSLRLSCAASGIIFYSYAIGGYRPAPGTERELVAAISSTGSTYYADSVKGRFTISRDNAKNTVYLQMNSLKPEDTAVYYCAATFYPYQVHHYYYWGQGTQVTVSS” belongs “low polyreactivity”.
For “QVKLVESGGGLVQAGGSLRLSCAASGRIFGRNTMGWYRQAPGKEREFVATITSGGSTYYADSVKGRFTISRDNAKNTVYLQMNSLKPEDTAVYYFNARGYSWRWYPLTSDYDSWGQGTQVTVSS” the value was “high polyreactivity”; for “QVKLVESGGGLVQAGGSLRLSCAASGRIFRFNPMGCYRQAPGKERELVAASNWRGGTTYADSVKGRFTISRDNAKNTVYLQMNSLKPEDTAVYYCNAGYGVTKWPYEERYDYWGQGTQVTLSS”, “high polyreactivity”; for “QVKLVESGGGLVQAGGSLRLSCAASGRTFPSYAMGWYRQAPGKERELVAAISRSGGSTYYADSVKGRFTISRDNAKNPVYLQMNSLKPEDTAVYYCAAVSRVHFSYIYDYWGQGTQVTVSS”, “high polyreactivity”.
As for “QVKLVESGGGLVQAGGSLRLSCAASGRTFPYYAKGWYRQAPGKERELVAAISWSGGSTYYADSVKGRFTISRDNAKNTVYLQMNSLKPEDTAVYYCNTVFSPWPDFRRFGYWGQGTQVTVSS”, the “polyreactivity (PSR sort gate)” value is “high polyreactivity”.
For “QVKLVESGGGLVQAGGSLRLSCAASGRTFYLYAMGWYRQAPGKERELVARITSGGTTNYADSVKGRFTISRDNAKNTVYLQMNSLKPEDTAVYYCAADPEGLGRVASRYFHFDYWGQGTQVTVSS” the value was “low polyreactivity”.
As to “QVKLVESGGGLVQAGGSLRLSCAASGSIFLAYAMGWYRQAPGKEREFVAAISCSDGSTYYADSVKGRFTISRDNAKNTVYLQMNSLKPDDTAVFYCYKGASADDYDYCGQGTQVTVSS”, the “polyreactivity (PSR sort gate)” value is “low polyreactivity”.
As to “QVKLVESGGGLVQAGGSLRLSCAASGSIFLVKVMGWYRQAPGKERELVAAITWSGGRTYYADSVKGRFTISRDNAKNTVYLQMIILKPEDTAVYYCAAEGWLLNGDSWGQGTQVTVSS”, the “polyreactivity (PSR sort gate)” value is “high polyreactivity”.
As for “QVKLVESGGGLVQAGGSLRLSCAASGSIFPHYAMGWYRQAPGKERELVAAISRGGSTNYADSVKGRFTISRDNAKNTVYLQMNSLKPEDTAVYYCNALRYYSRFLYAVAYRYDYWGQGSQVTVSS”, the “polyreactivity (PSR sort gate)” value was “high polyreactivity”.
For “QVKLVESGGGLVQAGGSLRLSCAASGSIFRRYGMGWYRQAPGKERELVAVITRGGSTYYADSVKGRFTISRDNAKNTVYLQMNSLKPEDTAVYYCNRSAGKDGQVGGQYDYWGQGTQVTVSS”, the “polyreactivity (PSR sort gate)” value is on record as “high polyreactivity”.
With “QVKLVESGGGLVQAGGSLRLSCAASGSIFVGYAIVWYRQAPGKERELVAAISTRGGSTYYADSVKGRFTISRENAKNTVYLKMNSLTPEDTAVYYCAADYLDSTYGYVYGWDDYWGQGTQVTVSS”, the “polyreactivity (PSR sort gate)” value is recorded as “low polyreactivity”.
“QVKLVESGGGLVQAGGSLRLSCAASGSIFYQYAMGGNRQAPGKERELVAVINRSGSSTYYADSVKGRFTISRDNAKNTVYLQMNSLKPEDTAVYYCAGASKYSEYNYWGQGTQVTVSS”: the “polyreactivity (PSR sort gate)” value was “high polyreactivity”.
As to “QVKLVESGGGLVQAGGSLRLSCAASGSTFPGYAMGWYRQAPGKERELVAAGGSTYYADSVKGRFTISRDNAKNTVYLQMNSLKTEDTAVYYCAATWGSVQKGTYYYWGQGTQVTVSS”, the “polyreactivity (PSR sort gate)” value is given as “low polyreactivity”.
For “QVKLVESGGGLVQAGGSLRLSCAASGSTFVGYAMGWYRQAHGKERELVAAINDSGGSTYYADSVKGRFTISRDNAKNTVYLQMNSLKPEDTAVYYCAADSSGTSWYTFDYWGQGTQVTVSS”, the “polyreactivity (PSR sort gate)” value is recorded as “low polyreactivity”.
Turning to “QVKLVESGGGLVQAGGSLRLSCAAYGSTFTRNAMGWYRQAPGKERQLVAAITSGGSTNYADSVKGRFTISRDNAKNTVYLEMNSLKPEDTAVYYCAAGLGRYFYSWRYLYSIFDYWGQGTQVTVSS”, the “polyreactivity (PSR sort gate)” value is given as “low polyreactivity”.
As for “QVKLVESGGGLVQAGGSLRLSFAASGYTFGSNAMGWYRQAPGKERELVADIDCSSGNTYYADSVKGRFTISRDNAKNTVYLQMNSLKPEDTAVYYCAAELHIYYSWYWYDYWGQGTQVTVSS”, the “polyreactivity (PSR sort gate)” value was “high polyreactivity”.
To “QVKLVESGGGLVQAGGSLRLTCAASGITFFIYAMGWYRQAPGKERELFYAIRSGGSTNYADSVKGRFTISRDNAKNTVYLQMNSLKPEDTAVYYCAADVYGTVRRVGWYYVGEGYDYWGQGTQLTVSS” belongs “low polyreactivity”.
To “QVKLVESGGGLVQAGGTLRLSCAASGSISWVYAMGWYRQAPGKERELVADITDSGDSTYYADSVKGRFTISRDNAKNTVYLQMNSLKPEDTAVFYCAAVSGPFVQTSGNGEYDYCGQGTQVTVSS” belongs “low polyreactivity”.
In the case of “QVKLVESGGGLVQAVGILSLSCAASGSILGLYAMGWYRQAPGKERELVASITSSGSTYYADSVKGRFTISRDNAKNTVYLQMIILKPEDTAVYYCAAVVSYYYYIRYDYWGQGTQVTVSS”, the “polyreactivity (PSR sort gate)” value is “low polyreactivity”.
For “QVKLVESGRGFVQAGGSLRISCAASGITFRYNAMGWYRQAPGKERELVAAITFSGGSTYYSDSVKGRFTISRDNAKNTVYLQMNILKPEDTAVYYCAKLGSTSTRGNYDYWGQGTQVTVSS” the value was “low polyreactivity”.
To “QVKLVESGRGLVQAGGSLRLSCAASGSIFAQNVMGWYRQAPGKERELVAAISYSGGTTYYADSVKGRFTISRDNAQNTVYLQMNSLKPEDTAVYYCAAEFGVYEYDYWGQGTQVTVSS” belongs “low polyreactivity”; to “QVKRVESGGGLVQAGGSLRLSCAASGIIFTYYAMGWYRQAPGKERELVAAISWTGGRTYFADSVKGRFTISRDNAKNTVYLQMNSLKREDTAVYYCAAKQYTRFGYYYWGQGTQVTVSS”, “high polyreactivity”.
As to “QVLLQESGGGLVQAGGSLRLSCAASGNIFSAGGMGWSRQAPVNERELVAGIGTGTSTNYADSVKGRFTISRDNSKNTVYLQMNSLTPEDTAVYYCAAAYYSGLSHWYWGQGTQVTVSS”, the “polyreactivity (PSR sort gate)” value is on record as “low polyreactivity”.
Turning to “QVLLQESGGGLVQAGGSLRLSCAASGNIFSAGGMGWYRQAPVKELELVAGIGTGTSTNYADSVKGRFTISRDNAKNTVYLQMNSLKPEDTAVYYCAADSYPAYLGFVGFDYWGQGTQVNVSS”, the “polyreactivity (PSR sort gate)” value is “low polyreactivity”.
Turning to “QVLLQETGGGLVQAGGSLRLSCAASGTISTDIRMGWYRLAPGKESEFVASIDCCSTTYYADSVKGRFTISRDNAKYTVYLQMNSLKPEDTAMYYCAAREATEFYLYYWGQGTQVTVSS”, the “polyreactivity (PSR sort gate)” value is “low polyreactivity”.
Take “QVLLVESAGGLVQAGGSLRLSCAASGRTFYRYAMGWYRQAPGKERELVAVISWTSGSTYYADSVKGRFTISRDNAKNTVYLQMNSLKPEDTAVYYCAARRGGSYRYEYWGQGTQVTVSS”: the “polyreactivity (PSR sort gate)” value is “high polyreactivity”.
For “QVLLVESGGGLVQAGGSIRLSCAASGFIFWSNSLGWYRPAPGQEMELVAAISWSGGSTYYADSVKGRFTISRDNAKNNVYLEMNSVKPEDTAVYYCAARQTYGYRYTKYGYWGQGTQVTVSS” the value was “high polyreactivity”.
Turning to “QVLLVESGGGLVQAGGSLRLSCAASGLTFERYAMGWYRQAPGKERELVAAISIRGGSTYYADSVKGRFTISRDKAMNTVYFQMKSLKPEDTAVDYCSADGSGREYDYWGQGTQVTVSS”, the “polyreactivity (PSR sort gate)” value is on record as “low polyreactivity”.
With “QVLLVESGGGLVQAGGSLRLSCAASGRIFNAYAMGWYRQAPGKERELVAAISRSGGRTYYADSVKGRFTISRDNAKITVYLQMNSLKPEDTAVYYCAADAWSEQYPKYYYWGQGTQVTVSS”, the “polyreactivity (PSR sort gate)” value is “low polyreactivity”.
With “QVLLVESGGGLVQAGGSLRLSCAASGRTLRGYAMGWYRQAPGKERELVAAITWSGGSTYYADSVKGRFTISRDHAKNTVYLQMNSLKPEDTAVYYCNARSYPDLYDYWGQGTQVTVSS”, the “polyreactivity (PSR sort gate)” value was “low polyreactivity”.
On to “QVLLVESGGGLVQAGGSLRLSCAASGYTFHVNAMGWYRQAPGKERELVAAINTSGDSTYYADSLKGRFTISRDNAKNTVYLQMNSLKPEDTAVYYCNAKGSVTRIGMEYDYWGQGTQVTVSW”, for which the “polyreactivity (PSR sort gate)” value is recorded as “low polyreactivity”.
With “QVLLVESGGGLVQAGGSLRLSCSASGSTSRFYAMGWSRQEPGKERELVAAINKSGTRTYYADSVKGRFTISRDNAKNTVYLQMNSLKPEDTAVYYCAADQGTYGYGGFYYWGLGTQVTVSS”, the “polyreactivity (PSR sort gate)” value is recorded as “high polyreactivity”.
Consider “QVLLVESGGGLVQAGGSLRLSSAASGSTYRNAMGWYRQAPGKERELVAAISSSGGRTYYADSVKGRFTISRDNAKNTVYLQMNSLKPDDTAVYYCAAPRFAAPSRIGYDWGQGTQVTVSS”, for which the “polyreactivity (PSR sort gate)” value is “high polyreactivity”.
On to “QVLLVESGGGLVQAGGSLRLTCTPYGSIFGYYVMGRYRQPPGKEREFVAAISYGGGSTYYADSVKGRFTISRDNAKNTVYLQMNSLKPEETAVYYCNTDIYSDYVGEEYEYWGQGSQVTVSS”, for which the “polyreactivity (PSR sort gate)” value was “high polyreactivity”.
For “QVLLVESGRGIVQAGGSLRLSCAASGGTFQPYAMGWYRQDTGKERELVAANSLNTGSTYYADSVKGRFTISRDNAKNTVYLQMNSLKPEDTAVDYCAVKWFYGGYDYWGQGTQVTVSS” the value was “low polyreactivity”.
To “QVLMQESGGGLVQAGGSLRLSCAASGNIFSAGGMGWYRQAPVNERELVAGIGTATSTNYADSVKGRFTFSRDNAKNTVYLQMNSLKREDTAVYYCAAAYYSGLSHWYWGQGTQVTVSS” belongs “low polyreactivity”.
As for “QVLQVESGGGVVQAGGSLRLSCSASGSTIGNKTMGWYRQAPGKEREFVAAITESGGGTYADSVKGRFTISRDNAKNTVYLQMNSLKPEDNAVYYSAAVWYIWPFAFYYWGEGTQVTVSS”, the “polyreactivity (PSR sort gate)” value is listed as “high polyreactivity”.
For “QVNLVDSGGGLVQAGGSHRLSCAASGSIVSGNAMGWYRQEPGKERELVATISWSGGSTNYADSVKGRFTISRDNAKNTVYLQMNSLKPEDTAVYYCNAYVAYWGWVYRVDYWGQGTQVTVSS”, the “polyreactivity (PSR sort gate)” value is reported as “low polyreactivity”.
